The source of these data is PMC3094755, “The DNA-Binding Domain of Human PARP-1 Interacts with DNA Single-Strand Breaks as a Monomer through Its Second Zinc Finger”.

The term Kd denotes the constant that tells how readily two partners part at equilibrium.

Data set [1] concerns the target T1, PARP-1 F1+F2 (24-kDa DBD) (Homo sapiens, UniProt P09874 1-214). As to the kind of experiment: EMSA; 400 nM DNA; FA: 50 mM Tris-HCl pH 7, 150 uM ZnSO4, 4 mM DTT, 0-200 mM NaCl, 25 C, 10 nM DNA (mutants 25 nM DNA, 25 mM NaCl); EMSA: 50 mM Tris-HCl pH 7.4, 150 uM ZnSO4, 4 mM DTT, 10% glycerol, RT incubation, gel at 4 C; NMR complexes: 50 mM Tris pH 7.0, 150 uM ZnSO4, 4 mM DTT, 37 C. Particulars: protein: recombinant; single-chain dumbbell, 18 bp with central nick, two tetraloops. A general note: Mobility shift assays separate free from complexed probe on a gel.

A further data set concerns the target PARP-1 F2 (Homo sapiens, UniProt P09874 103-214). As to the kind of experiment: EMSA; 400 nM DNA; slightly less than F1+F2; FA: 50 mM Tris-HCl pH 7, 150 uM ZnSO4, 4 mM DTT, 0-200 mM NaCl, 25 C, 10 nM DNA (mutants 25 nM DNA, 25 mM NaCl); EMSA: 50 mM Tris-HCl pH 7.4, 150 uM ZnSO4, 4 mM DTT, 10% glycerol, RT incubation, gel at 4 C; NMR complexes: 50 mM Tris pH 7.0, 150 uM ZnSO4, 4 mM DTT, 37 C. The settings on record: protein: recombinant; single-chain dumbbell with 1-nt gap, two tetraloops.

The next data set concerns the target PARP-1 F2 R138I (Homo sapiens, UniProt P09874 103-214, R138I). Nature of the data set: EMSA; 400 nM DNA; FA: 50 mM Tris-HCl pH 7, 150 uM ZnSO4, 4 mM DTT, 0-200 mM NaCl, 25 C, 10 nM DNA (mutants 25 nM DNA, 25 mM NaCl); EMSA: 50 mM Tris-HCl pH 7.4, 150 uM ZnSO4, 4 mM DTT, 10% glycerol, RT incubation, gel at 4 C; NMR complexes: 50 mM Tris pH 7.0, 150 uM ZnSO4, 4 mM DTT, 37 C. The settings on record: protein: recombinant; single-chain dumbbell with 1-nt gap, two tetraloops.

Data set [2] has as its target T1, PARP-1 F1+F2 (24-kDa DBD). The description is as above. Particulars: protein: recombinant; single-chain dumbbell with 1-nt gap, two tetraloops.
Another data set deals with PARP-1 F2 K141I/K142I (Homo sapiens, UniProt P09874 103-214, K141I;K142I). The description is as above. The settings on record: protein: recombinant; single-chain dumbbell with 1-nt gap, two tetraloops.
PARP-1 F2 K141I/K142I, sequence (P09874 103-214 K141I/K142I): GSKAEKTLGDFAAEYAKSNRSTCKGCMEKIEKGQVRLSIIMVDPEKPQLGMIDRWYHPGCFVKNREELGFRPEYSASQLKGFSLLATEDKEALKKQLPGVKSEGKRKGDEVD
The target of another data set is PARP-1 F2 K131I/G135D (Homo sapiens, UniProt P09874 103-214, K131I;G135D). Described as above. Particulars: protein: recombinant; single-chain dumbbell with 1-nt gap, two tetraloops.
PARP-1 F2 K131I/G135D, sequence (P09874 103-214 K131I/G135D): as the sequence (P09874 103-214 K141I/K142I) above, with K29I, G33D, I39K, I40K counted along it
Data set [3] deals with T1, PARP-1 F1+F2 (24-kDa DBD). Nature of the data set: NMR; 1:1 complex; FA: 50 mM Tris-HCl pH 7, 150 uM ZnSO4, 4 mM DTT, 0-200 mM NaCl, 25 C, 10 nM DNA (mutants 25 nM DNA, 25 mM NaCl); EMSA: 50 mM Tris-HCl pH 7.4, 150 uM ZnSO4, 4 mM DTT, 10% glycerol, RT incubation, gel at 4 C; NMR complexes: 50 mM Tris pH 7.0, 150 uM ZnSO4, 4 mM DTT, 37 C. The settings on record: protein: recombinant; single-chain dumbbell with 1-nt gap, two tetraloops.

Data set [4] addresses T1, PARP-1 F1+F2 (24-kDa DBD). As to the kind of experiment: fluorescence anisotropy; 50; 50 mM Tris-HCl pH 7.0, 150 uM ZnSO4, 4 mM DTT, 25 C; NaCl 0-200 mM (T2, as in cof; 10 nM DNA) or 25 mM (T3 mutants; 25 nM DNA). The settings on record: protein: recombinant, label: fluorescein-dT at T8 and T30, two tetraloops.
In data set [5] the target is T1, PARP-1 F1+F2 (24-kDa DBD). As to the kind of experiment: fluorescence anisotropy; 25; 50 mM Tris-HCl pH 7.0, 150 uM ZnSO4, 4 mM DTT, 25 C; NaCl 0-200 mM (T2, as in cof; 10 nM DNA) or 25 mM (T3 mutants; 25 nM DNA). Particulars: protein: recombinant, label: fluorescein-dT at T8 and T30, two tetraloops.
Data set [6] has as its target T1, PARP-1 F1+F2 (24-kDa DBD). Nature of the data set: fluorescence anisotropy; 100; 50 mM Tris-HCl pH 7.0, 150 uM ZnSO4, 4 mM DTT, 25 C; NaCl 0-200 mM (T2, as in cof; 10 nM DNA) or 25 mM (T3 mutants; 25 nM DNA). The settings on record: protein: recombinant, label: fluorescein-dT at T8 and T30, two tetraloops. A general note: In fluorescence polarisation assays a small probe gives low polarisation when free and higher when bound to something large.

In data set [7] the target is T1, PARP-1 F1+F2 (24-kDa DBD). As to the kind of experiment: fluorescence anisotropy; 200; 50 mM Tris-HCl pH 7.0, 150 uM ZnSO4, 4 mM DTT, 25 C; NaCl 0-200 mM (T2, as in cof; 10 nM DNA) or 25 mM (T3 mutants; 25 nM DNA). The settings on record: protein: recombinant; label: fluorescein-dT at T8 and T30; single-chain dumbbell with central nick, two tetraloops.
For data set [8], the target named is T1, PARP-1 F1+F2 (24-kDa DBD). As to the kind of experiment: fluorescence anisotropy; 0; 50 mM Tris-HCl pH 7.0, 150 uM ZnSO4, 4 mM DTT, 25 C; NaCl 0-200 mM (T2, as in cof; 10 nM DNA) or 25 mM (T3 mutants; 25 nM DNA). The settings on record: protein: recombinant, label: fluorescein-dT at T8 and T30, two tetraloops.
Data set [9] deals with T1, PARP-1 F1+F2 (24-kDa DBD). Nature of the data set: fluorescence anisotropy; 75; 50 mM Tris-HCl pH 7.0, 150 uM ZnSO4, 4 mM DTT, 25 C; NaCl 0-200 mM (T2, as in cof; 10 nM DNA) or 25 mM (T3 mutants; 25 nM DNA). Particulars: protein: recombinant, label: fluorescein-dT at T8 and T30, two tetraloops.
For data set [10], the target named is T1, PARP-1 F1+F2 (24-kDa DBD). As to the kind of experiment: fluorescence anisotropy; 150; 50 mM Tris-HCl pH 7.0, 150 uM ZnSO4, 4 mM DTT, 25 C; NaCl 0-200 mM (T2, as in cof; 10 nM DNA) or 25 mM (T3 mutants; 25 nM DNA). Particulars: protein: recombinant; label: fluorescein-dT at T8 and T30; single-chain dumbbell with central nick, two tetraloops.
Setting [11] is: single-chain dumbbell with central nick.
The mark [12] stands for this setting: circular closed dumbbell, no nick.

T1 sequence (P09874 1-214): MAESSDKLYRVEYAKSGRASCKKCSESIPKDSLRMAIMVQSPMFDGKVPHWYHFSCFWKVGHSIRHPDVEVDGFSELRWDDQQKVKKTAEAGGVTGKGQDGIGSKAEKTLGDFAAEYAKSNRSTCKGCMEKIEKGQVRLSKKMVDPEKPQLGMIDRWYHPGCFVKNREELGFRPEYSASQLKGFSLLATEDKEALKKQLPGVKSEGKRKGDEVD
PARP-1 F2, sequence (P09874 103-214): as the sequence (P09874 103-214 K141I/K142I) above, with I39K, I40K counted along it
PARP-1 F2 R138I, sequence (P09874 103-214 R138I): as the sequence (P09874 103-214 K141I/K142I) above, with R36I, I39K, I40K counted along it

CGGTCGATCGTAAGATCGACCGGCGCTGGAGCTTGCTCCAGCGC (structured_DNA, 5'-phosphate) [44-nt nicked dumbbell, 5'-phosphate]: the binding signal in [1] was ~2 fold weaker than gapped ligand.
CGGTCGATCGTAAGATCGACCGTGCGCTGGAGCTTGCTCCAGCGC (structured_DNA, 5'-phosphate) [45-nt gapped dumbbell, 5'-phosphate]: the binding result with PARP-1 F2 is “binds”; in the data set with PARP-1 F2 R138I, “no binding”; in data set [2], “binds”; with PARP-1 F2 K141I/K142I it was “no binding”; in the data set with PARP-1 F2 K131I/G135D, “no binding”.
With CGGTCGATCGTAAGATCGACCGTGCGCTGGAGCTTGCTCCAGCGC (structured_DNA, 5'-deoxyribose (printed as 5' ribose in text)) [45-nt gapped dumbbell, 5'-ribosylated], in data set [3], the binding result is “binds”.
On the same count and under the same terms, for CGGTCGATCGTAAGATCGACCGTGCGCTGGAGCTTGCTCCAGCGC (structured_DNA, 3'-phosphate) [45-nt gapped dumbbell, 3'-phosphate] the value was “binds”.
Take CGGTCGATCGTAAGATCGACCGCGGTCGATCGTAAGATCGACCG (structured_DNA, 5'-phosphate) [44-nt nicked symmetric dumbbell, 5'-phosphate, 2x fluorescein-dT]: the Kd in data set [4] (setting [11]) is 56.1 nM; in data set [5] (setting [11]), 54.2 nM; in [6] (setting [11]) it was 56.9 nM; in data set [7] it was 46.2 nM; in data set [8] (setting [11]), 48.6 nM; in data set [9] (setting [11]) it was 62.4 nM. For the same molecule, the Kd in [10] was determined as 52.4 nM.
With CGGTCGATCGTAAGATCGACCGCGGTCGATCGTAAGATCGACCG (structured_DNA, circular, nick sealed by T4 DNA ligase) [ligated (circular) symmetric 44-nt dumbbell, 2x fluorescein-dT], the Kd came to 166 nM in [4] (setting [12]); 134 nM in [5] (setting [12]); 1110 nM in [6] (setting [12]); 117 nM in [8] (setting [12]); 480 nM in data set [9] (setting [12]).
